In patent US20240059763A1 (ZHUHAI TRINOMAB PHARMACEUTICAL, published 2024):

Columns and labels:
[1] = biological target: T1, RSV Pre-F protein (pre-fusion conformation of the F protein of RSV A2 strain) (RSV A2 strain, UniProt P03420 26-513); test: ELISA, RSV Pre-F coated on the plate, TRN1021 in 3-fold dilutions, anti-human IgG-HRP, OD450
T1 construct: Recombinant trimeric protein; also called pre-fusion F protein; antigen Pre-F protein

[2] = biological target: T1, RSV Pre-F protein (pre-fusion …); test: SPR (Biacore X100), TRN1021 captured on anti-human IgG (Fc), Pre-F as analyte at 2.5-40 µg/mL

T1 sequence (P03420 26-513): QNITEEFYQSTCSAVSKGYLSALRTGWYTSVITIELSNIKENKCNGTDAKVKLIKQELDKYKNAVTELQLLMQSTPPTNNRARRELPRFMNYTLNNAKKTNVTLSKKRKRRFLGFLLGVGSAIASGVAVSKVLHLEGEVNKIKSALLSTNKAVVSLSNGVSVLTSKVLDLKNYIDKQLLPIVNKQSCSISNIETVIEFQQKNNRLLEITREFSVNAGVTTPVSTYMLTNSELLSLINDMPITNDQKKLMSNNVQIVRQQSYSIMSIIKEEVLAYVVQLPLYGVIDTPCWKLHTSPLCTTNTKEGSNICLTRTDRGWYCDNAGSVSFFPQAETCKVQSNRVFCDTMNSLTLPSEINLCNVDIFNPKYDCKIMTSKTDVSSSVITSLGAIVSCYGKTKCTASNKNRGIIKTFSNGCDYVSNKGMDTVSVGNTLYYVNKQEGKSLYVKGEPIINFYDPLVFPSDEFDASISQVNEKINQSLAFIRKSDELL

B1: fully human anti-RSV monoclonal antibody TRN1021 (antibody, V domains shown)
VH: QVQLVQSGAEVKKPGESLKISCQGSGYSFNNYYIGWVRQMPGKGLEWMVIIYPGDSDTKYSPSFQGQVTVSADRSINTAYLQWSSLRASDTAVYYCVRMDTVTTGAGVGFNWFFDLWGRGTLVTVSS
VL: EIVLTQSPATLSVSPGERATLSCRASQSVTSYLAWYQQKPGQAPRLLIYGASSRATGVPARFSGSGSETEFTLTISSLQSEDFAVYYCQQYNDWPAITFGQGTRLENK
notes: It was expressed in HEK293 cells as a whole human antibody, purified on Protein A, detected with anti-human IgG and captured through anti-human IgG (Fc); also called fully human anti-RSV-F protein monoclonal antibody TRN1021
[1]
  EC50 (read off the curve): ~8 ng/mL
[2]
  Kd: ~1 nM
